The results in this text go back to publication PMC3326539 (The Journal of biological chemistry, 2005).

In data set [1] the target is T1, ArnA C-terminal decarboxylase domain (T316M to S660) (E. coli, UniProt P77398 316-660, T316M).
T1 sequence (looked up): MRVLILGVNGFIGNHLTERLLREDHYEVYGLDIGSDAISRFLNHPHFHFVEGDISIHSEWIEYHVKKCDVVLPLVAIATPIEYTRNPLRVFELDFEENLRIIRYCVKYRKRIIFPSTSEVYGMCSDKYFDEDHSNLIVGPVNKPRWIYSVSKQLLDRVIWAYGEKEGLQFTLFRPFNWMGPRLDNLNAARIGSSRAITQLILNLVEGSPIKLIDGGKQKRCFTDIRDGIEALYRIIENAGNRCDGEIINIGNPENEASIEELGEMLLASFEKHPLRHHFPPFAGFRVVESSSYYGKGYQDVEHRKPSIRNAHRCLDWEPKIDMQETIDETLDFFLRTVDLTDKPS
As to the kind of experiment: SEC. A general note: In gel filtration, larger molecules generally elute earlier.

Data set [2] deals with the molecule itself. As to the kind of experiment: crystal structure.

B1: ArnA N-terminal formyltransferase domain (residues M1 to N305) (domain or fragment, E. coli, UniProt P77398 1-305, looked up)
chain: MKTVVFAYHDMGCLGIEALLAAGYEISAIFTHTDNPGEKAFYGSVARLAAERGIPVYAPDNVNHPLWVERIAQLSPDVIFSFYYRHLIYDEILQLAPAGAFNLHGSLLPKYRGRAPLNWVLVNGETETGVTLHRMVKRADAGAIVAQLRIAIAPDDIAITLHHKLCHAARQLLEQTLPAIKHGNILEIAQRENEATCFGRRTPDDSFLEWHKPASVLHNMVRAVADPWPGAFSYVGNQKFTVWSSRVHPHASKAQPGSVISVAPLLIACGDGALEIVTGQAGDGITMQGSQLAQTLGLVQGSRLN
What is called Kd is a measure of binding affinity in units of concentration. The low end stands for tighter binding, the high end for weaker binding. Regarding B1, in data set [1], the Kd is above 5 mM. Further, in data set [2], the binding result is listed as “binds”.
